Measurements: US20100204100A1, “BIOLOGICAL AGENTS ACTIVE IN CENTRAL NERVOUS SYSTEM” (THE JOHNS HOPKINS UNIVERISTY, priority 2007, published 2010)
“Also recorded” adds a separate entry of the source.

Legend:
[1] = system: interaction between NR2A/2B and PSD-95; assay: In vivo binding assay (co-immunoprecipitation) from spinal cord homogenates of treated mice; design: species or system mouse; conditions: 8 mg/kg intraperitoneal
Experimental: In Vitro and In Vivo Binding Assays. […] Membrane-bound proteins from the spinal lumbar enlargement segments were extracted as described previously (Tao, et al., 2003a). For in vitro binding experiments (GST pull-down), the solubilized membrane fraction and GST fusion peptide were first preincubated with different concentrations of Tat-PSD-95 PDZ2 at room temperature for 30 min. Then the membrane fraction was mixed with the GST fusion peptide at room temperature for 1 h. The resin was washed five times with washing buffer (PBS plus 500 mM NaCl and 0.1% Triton X-100) and then boiled in 1×SDS-PAGE sample buffer to elute the bound proteins. After being separated by electrophoresis, the proteins were detected by immunoblotting with anti-GST antibody (Santa Cruz Biotechnology, Santa Cruz, Calif.) and anti-NR2B antibody (Upstate Biotechnology, Lake Placid, N.Y.). For in vivo binding experiments (co-immunoprecipitation), 5 μg of the affinity-purified rabbit NR2A/2B antibody (Chemicon, Temecula, Calif.) was incubated with 100 μl of protein A-Sepharose slurry for 1 h, and the complex was spun down at 2000 rpm for 4 min. The solubilized membrane fraction (500 μg) from the different groups of treated mice as mentioned-above then was added to the Sepharose beads, and the mixture was incubated for 2-3 h at 4° C. The mixture was washed once with 1% Triton X-100 in immunoprecipitation buffer [containing (in mM): 137 sodium chloride, 2.7 potassium chloride, 4.3 disodium hydrogen phosphate, 1.4 potassium dihydrogen phosphate, 5 ethylene glycol tetraacetic acid, 1 sodium vanadate, 10 sodium pyrophosphate, 50 sodium fluoride, 0.1 phenylmethylsulfonyl fluoride, and 20 U/ml Trasylol], twice with 1% Triton X-100 in immunoprecipitation buffer plus 300 mM sodium chloride, and three times with immunoprecipitation buffer. The proteins were separated by SDS-PAGE and detected by NR2A/2B or PSD-95 antibody (Upstate Biotechnology, Lake Placid, N.Y.). As a positive control (input), 50 μg of the solubilized membrane fraction was loaded onto the gel. […]

[2] = system: threshold for halothane anesthesia; assay: Determination of halothane RREC50 (righting reflex); type: in vivo, mouse; conditions: mice; for halothane RREC50: mean±S.E.M., vehicle 0.48±0.02; for effect on halothane RREC50: intraperitoneal injection, dose series
Experimental: The purified fusion peptides at the indicated amounts were injected intraperitoneally into mice in 300 μl of phosphate-buffered saline and 10% glycerol. The mice were given Tat-PSD-95 PDZ2 or control peptide (mutated Tat-PSD-95 PDZ2 or PSD-95 PDZ2 without Tat) 4 h before MAC measurement and righting reflex testing. All the animals were assigned randomly to experimental groups consisting of 6-8 animals each. Western blot analysis was then used to verify the CNS delivery of these fusion peptides after intraperitoneal injection. Following the measurement of MAC, the halothane concentration was halved for 10 min and the animal turned on its back to test the righting reflex defined as a return onto all four paws within 1 min^20-22. […] RREC50 was calculated for each mouse as the mean value of the anesthetic concentrations that just permitted and just prevented the righting reflex.

Molecule	effect on interaction between NR2A/2B and PSD-95, co-immunoprecipitation [1]	halothane RREC50 ([2]; 2 mg/kg intraperitoneal)	halothane RREC50 ([2]; 4 mg/kg intraperitoneal)	halothane RREC50 ([2]; 8 mg/kg intraperitoneal)	effect on halothane RREC50 [2]	effect on halothane RREC50 compared to vehicle-treated group ([2]; two higher doses (4 and 8 mg/kg) intraperitoneal)	effect on halothane RREC50 compared to vehicle-treated group ([2]; 8 mg/kg intraperitoneal)
Tat-PSD-95 PDZ2: His-tagged fusion peptide: HIV Tat minimal transduction domain (residues 47-57) fused to the second PDZ domain of PSD-95 (protein) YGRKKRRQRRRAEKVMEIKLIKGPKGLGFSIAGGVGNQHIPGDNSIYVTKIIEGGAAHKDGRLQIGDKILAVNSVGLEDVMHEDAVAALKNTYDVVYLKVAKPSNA	markedly disrupted; also recorded: markedly blocked	0.45±0.03	0.37±0.03	0.18±0.02	dose-dependently reduced	significantly reduced	–
mutated Tat-PSD-95 PDZ2: Control fusion peptide: Tat-PSD-95 PDZ2 with three sites critical for NMDAR/PSD-95 interaction mutated (K165T, L170R and H182L) (protein) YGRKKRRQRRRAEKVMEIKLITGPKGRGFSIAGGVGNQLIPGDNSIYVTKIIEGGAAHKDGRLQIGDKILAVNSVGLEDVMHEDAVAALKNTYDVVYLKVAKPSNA	no effect; also recorded: neither mutated Tat-PSD-95 PDZ2 (8 mg/kg) nor PSD-95 PDZ2 (8 mg/kg) had an effect	–	–	–	no effect	–	no effect
PSD-95 PDZ2: Control peptide containing the same sequences as Tat-PSD-95 PDZ2 but without Tat PTD (protein) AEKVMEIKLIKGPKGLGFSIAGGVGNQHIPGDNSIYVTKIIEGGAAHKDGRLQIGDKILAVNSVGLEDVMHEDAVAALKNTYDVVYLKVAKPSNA	neither mutated Tat-PSD-95 PDZ2 (8 mg/kg) nor PSD-95 PDZ2 (8 mg/kg) had an effect	–	–	–	no effect	–	no effect
